According to the nanobody polyreactivity screen of Harvey et al. (2022):

Assay: yeast display, Sf9 membrane polyspecificity reagent, FACS + sequencing; frameworks hold sequencing errors
Summary of the method: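 A synthetic nanobody library was expressed on Saccharomyces cerevisiae BJ5465 by galactose induction for 36–48 hours. The library was stained for 1 hour at 4 °C with 10% biotinylated, detergent-solubilized Sf9 membrane reagent and enriched with streptavidin microbeads before FACS. Low and high (top ~1%) gates were set on anti-HA fluorescence for expression and streptavidin fluorescence for reagent binding, and each polyreactivity label reflects the gate of origin.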

Sequence | polyreactivity (PSR sort gate)
QVQLVESGGGLVQAGGSLRLSCAASGRTFYKYAMGWYRQAPGKERELVAAISSRGGRTYYADSVKGRFTISRDNAKNTVYLQMNSLKPEDTAVYYCAAKGRPDGKYDYWGQGTQVTVSS | high polyreactivity
QVQLVESGGGLVQAGGSLRLSCAASGRTFYLNAMGWYRPAPGKERELVAAITRTGGRTYYADSVKGRFTISRDNAKNTVYLQMNSLKPEDTAVYYCAADYVNYSYEYWGQGTQVTVSS | high polyreactivity
QVQLVESGGGLVQAGGSLRLSCAASGRTFYLYTMGWYRQAPGKERELVATISDGGGGTYYADSVKGRFTISRDNAKNTVYLQMNSLKPEDPAVYYCAADPIDVRDVPIPHVDFDYWGQGTQVTVSS | low polyreactivity
QVQLVESGGGLVQAGGSLRLSCAASGRTFYNAMGWYRQAPGKERELVAAITTGGGTKYADSVKGRFTISRDNAKNTVYLQMNSLKPEDTEVYYCATDAPDRTHSDSGFDAGYDYWGQGTQVTLSS | low polyreactivity
QVQLVESGGGLVQAGGSLRLSCAASGRTFYNTMGWYRQPPGKERELVAAISRGGITNYADSVKGRFTISRDNAKNTVYLQMNSLKPEDTAVYYCNAEPKLYYYYYKFDYWGQGTQVTVAS | high polyreactivity
QVQLVESGGGLVQAGGSLRLSCAASGRTFYNYAMVWYRQAPGKERELVAAIDWGSDSTYYADSVKGRFTISRDNAKNTVYLQMNSLKPEDTAVYYCAAYLVSVYSRTYDYWGQGTQVTVSS | low polyreactivity
QVQLVESGGGLVQAGGSLRLSCAASGRTFYPYAMGWYRQAPGKERELVAAISYRGGSTYYADSVKGRFTISRDNAKNTVYLQMNSLKPEDTAVYYCAKRGYASGSKWDYGYWGQGTQVTVSS | high polyreactivity
QVQLVESGGGLVQAGGSLRLSCAASGRTFYPYAMGWYRQAPGKERELVAAITQSGGSTYYADSVKGRFTISRDNAKNTVFLEMNSLKPEDTAVYYCAKRGYDNYPFYYWGQGTQVTVSS | high polyreactivity
QVQLVESGGGLVQAGGSLRLSCAASGRTFYPYAMGWYRQAPGKERELVATIRWTGGSTYYADSVKGRFTISRDNAKNTVYLQMNSLKPEDTAVYYCAAQNYFAFIRTYRYVHRPTYYYWGQGTQVTVSS | high polyreactivity
QVQLVESGGGLVQAGGSLRLSCAASGRTFYPYTMGWYRQAPGKEMELVAAITTSTGNTYYADSVKGRFTISRDNAKNNVYLQMNILKPEDTSVYYCAADTVWRLDYWGQGTKVTVSS | low polyreactivity
QVQLVESGGGLVQAGGSLRLSCAASGRTFYPYVMGWYRQAPGKEREFVAAISGTGGSTYYADSVKGRFTISRDNAKNTVYLQMNSLKPEDTAVYYCNRRIPYTSYSYGYWGQGTQVTVSS | high polyreactivity
QVQLVESGGGLVQAGGSLRLSCAASGRTFYQNVMGWYRPAPGKERELVAAISQRGGRTYYADSVKGRFTISRDNAKNTVYLQMNSLKPEDTAVYYCNADSTVWPYDYWGQGTQVTVSS | low polyreactivity
QVQLVESGGGLVQAGGSLRLSCAASGRTFYQYAMGWYRQAPGKERELVAAISKSGRRTYYADSVKGRFTISRDNAKNTVYLQINSLKPEDTAVYYCNAARYLTRWGRFYYWGEGTQVTVSS | high polyreactivity
QVQLVESGGGLVQAGGSLRLSCAASGRTFYQYGMGWYRQAPGKERELVAAISDSGGGTYYADSVKGRFTISRDNAKHTVYLQMNSLKPEDTAVYFCAATYVGPRRRYYYWGQGTQVTVSS | high polyreactivity
QVQLVESGGGLVQAGGSLRLSCAASGRTFYRNAMGWYRPAPGKERELVAAITSSGASTYYADSVKGRFTISRDNAKNTVYLQMKSLKPEDTAVYYCAAKYVFSVGNYRYDYWGQGTQVTGSS | low polyreactivity
QVQLVESGGGLVQAGGSLRLSCAASGRTFYRNAMGWYRQAPGKERELVAAISRGDSTYYADSVKGRFTISRDNAKNTVYLQMNSLKPEDTAVYYCAKRARRIGDVNMGSWGQGTQVTVSS | low polyreactivity
QVQLVESGGGLVQAGGSLRLSCAASGRTFYRNAMGWYRQATGKEREFVAVISVSGGSTYYADSVKGRFTISRDYAKNTVYLQMNSLKPEDTAVYYCGKRGPVRKTAYEYWGQGTQVTVSS | low polyreactivity
QVQLVESGGGLVQAGGSLRLSCAASGRTFYRNDMGWYRQAPGKERELVAAITSSGGTTYADSVKGRFTISRDNAKNTVYLQMNSLKPEDTAVYYCAAVYAYPNIYDYWGQGTQVNVSS | low polyreactivity
QVQLVESGGGLVQAGGSLRLSCAASGRTFYRYAMGWSRQAPGKERELVAGISGSGGRTYYADSVKGRFTISRDNAKNTVFLQMNSLKPEDTAVYYCNAYPHAYTGSTREGDYWGQGTQVTVSS | high polyreactivity
QVQLVESGGGLVQAGGSLRLSCAASGRTFYRYAMGWYRQAPGKEREFVAAISNGGSNTRYADSVKGRFTISRDNAKNTVYLQMNSLKPEDTAVYYCAARAYQHYNWGQGTQVTVSS | high polyreactivity
QVQLVESGGGLVQAGGSLRLSCAASGRTFYRYAMGWYRQAPGKERELVAAITSGDRTDYADSVKGRFTISRDNAKNTVYLQMNSLKPEDTAVYYCAADPYYVTDYDYWGEGTQVTVSS | low polyreactivity
QVQLVESGGGLVQAGGSLRLSCAASGRTFYRYAMGWYRQAPGKERELVAVISTDGSSTYYADSVKGRFTISRDNAKNTVYLLMNSLKPEDTAVYYCAARSLAWLFGRNYWGQGTQVTVSS | high polyreactivity

Sequence | polyreactivity (PSR sort gate)
QVQLVESGGGLVQAGGSLRLSCAASGRTFYRYAMGWYRQPPGKESELVARIRATGGSTYYADSVKGRFTISRDYAKNTVYSQMNSLKPEDTAVYYCAAKIRWGSTWLGAGDYWGQGTQVTVSS | high polyreactivity
QVQLVESGGGLVQAGGSLRLSCAASGRTFYSFNAMVCYRQAPVKERELVAAIVGDGGITYYADSVKGRFTISRDNANNTVFLQMNSLKPEDTAVYYCAAETLHSSDGEDDYWGQGTQVSVSS | low polyreactivity
QVQLVESGGGLVQAGGSLRLSCAASGRTFYSNAMGWYRPAPGKERELGATISSGGSTNYADSVKGRFTISRDTAKNTVYLQINSVKPADTAVYYCDTRPDRINDYWGQGTQVTVSS | low polyreactivity
QVQLVESGGGLVQAGGSLRLSCAASGRTFYSNAMGWYRQAPGKERELVAAITSGGSTNYADSVKGRFTISRDNAKNTVYLQMNSLKPEDSAVYYCAVRGYWTIRSRRYYYWGQGTQVTVSS | high polyreactivity
QVQLVESGGGLVQAGGSLRLSCAASGRTFYSNAMGWYRQAPGKERELVAAITSTDDSTYYADSVKGRFTISRDNAKNTVYLQMNSLKPEDNAVYYCNRDGLIAIRGLWWVEYDYWGQGTQVTVSS | low polyreactivity
QVQLVESGGGLVQAGGSLRLSCAASGRTFYSNAMGWYRQAPGKERELVAGINIGGGSTYYADSVKGRFTISRDNAKNTVYLQMNSLKPEDTAVYYCAARRWGAYRHGYWGQGTQVTVSS | high polyreactivity
QVQLVESGGGLVQAGGSLRLSCAASGRTFYSYAMGWYRQAPGKERELVAAINTSGGRTHYADSVKGRFTISRDNAKNTVYLQMNCMKPEDTAVYYCAKLARSGTLTYYYWGQGTQVNVSS | high polyreactivity
QVQLVESGGGLVQAGGSLRLSCAASGRTFYSYAMGWYRQAPGKERELVAAITSDGGTYYADSVKGRFTISRDNAKNTVYLQMNSLKPEDTAVYYCNAVGGWVTHWLLREGDYWGQGTQVTVSS | low polyreactivity
QVQLVESGGGLVQAGGSLRLSCAASGRTFYSYAMGWYRQAPGKERELVAAMTSDGGTYYADSVKGRFTISRDNAKNTVYLQMNSLKPEDTAVYYCAAELYYWYYYWGQGTKVTVSS | low polyreactivity
QVQLVESGGGLVQAGGSLRLSCAASGRTFYSYARGWYRQAPGKEREFFAAISRSGGSTYYADSVKGRFTISRDYAKNTVYLQMNSLKPEDTAVYYCAARYRRDDYDYWGQGTQVTVSS | high polyreactivity
QVQLVESGGGLVQAGGSLRLSCAASGRTFYSYTMGWYRQAPGKERELVAAINRGGSTYYADSVKWRFTISRDNAKNTVYLQMNSLKPEDTAVYYCNADNWVYLYDYWGQGTQVTVSS | low polyreactivity
QVQLVESGGGLVQAGGSLRLSCAASGRTFYTNAKGWYRQAPGKERELVAAISSDSSTNYADSVKGRLTISRDNAKNTVYLQMNSLKPEDTAVYYCNKVRQGWADYEYWGQGSQVTVSS | low polyreactivity
QVQLVESGGGLVQAGGSLRLSCAASGRTFYTNAMGWSRQAPGKERELVAAISRGGGRTYYADSVKGRFTISRDNAKNTVYLQMNSLKPEDTAVYYCAASPYQGQGREYYYWGQGTQVTVSS | high polyreactivity
QVQLVESGGGLVQAGGSLRLSCAASGRTFYTNTMGWYRPAPGKERELVAAISYSGSSTYYADSVKGRFTISRDNAKNTVYLQMNSLKPEDTAVYYCNAVRYYRYYYWGQGTQVTVSS | low polyreactivity
QVQLVESGGGLVQAGGSLRLSCAASGRTFYTVYAMGWYRQAPGKERELVAAITRSGGSTYYADSVKGRFTISRDNAKNTLYLQMNSLKPEDTAVYYCAAAPPLAGLGGYYWGQGTQVTVSS | high polyreactivity
QVQLVESGGGLVQAGGSLRLSCAASGRTFYTYTMGWYRQAPRKEREFVAAISSSGSSTYYADSVKGRFTISRDNAKNTVYLQMNSLKPEDTAVYYCAATSYSYPGYFRYDYWGQGTQVTVSS | high polyreactivity
QVQLVESGGGLVQAGGSLRLSCAASGRTFYVKVMGWYRQEPGKERELVAVISRSDGSTTYADSVKGRFTISRDNAKNTVYLQMNSLKPEDTAVYYCNTDLPLGSGVLPDWELFDYWGQGTQVTVSS | low polyreactivity
QVQLVESGGGLVQAGGSLRLSCAASGRTFYVNAMGGYRQAPGKERELVARITSGGSTYYADSVKGRFTISRDNAKNTVYLQMNSLKPEDTAVYYCAKKYIGYQEWIHSTRRYDYWGQGTQVTGSS | low polyreactivity
QVQLVESGGGLVQAGGSLRLSCAASGRTFYVNTMGWYRQAPGKERELVASITWSDGSTYYADSVKGRFTISRDNAKNTVYLQMNSLKPDDSAVYYCAASGRFIVNAYRSWGRRRYEYWGQGTQVTVSS | high polyreactivity
QVQLVESGGGLVQAGGSLRLSCAASGRTFYVYAMGWYRQAPGKERELVAAITFSGGSTYYADSVKGRFTISRDNAKNPVYLQMNSLKPEDTAVYYCNRRSYVPDRFRHDSSVIYDYWGQGTQVTVSS | low polyreactivity
QVQLVESGGGLVQAGGSLRLSCAASGRTFYVYAMGWYRQAPGKERELVATISRGGSTTYADSVKGRFTISRDNAKNTVYLQMNSLKPEDTAVYYCATELLGGRRTVAYYWGQGTQVTVSS | low polyreactivity
